{"source": "paper PMC5645793", "about": "(Journal of toxicology and environmental health. Part A, 2009)", "molecules": {"B1": {"name": "human lens ALDH1A1 (Homo sapiens) (protein)", "chain": "MSSSGTPDLPVLLTDLKIQYTKIFINNEWHDSVSGKKFPVFNPATEEELCQVEEGDKEDVDKAVKAARQAFQIGSPWRTMDASERGRLLYKLADLIERDRLLLATMESMNGGKLYSNAYLNDLAGCIKTLRYCAGWADKIQGRTIPIDGNFFTYTRHEPIGVCGQIIPWNFPLVMLIWKIGPALSCGNTVVVKPAEQTPLTALHVASLIKEAGFPPGVVNIVPGYGPTAGAAISSHMDIDKVAFTGSTEVGKLIKEAAGKSNLKRVTLELGGKSPCIVLADADLDNAVEFAHHGVFYHQGQCCIAASRIFVEESIYDEFVRRSVERAKKYILGNPLTPGVTQGPQIDKEQYDKILDLIESGKKEGAKLECGGGPWGNKGYFVQPTVFSNVTDEMRIAKEEIFGPVQQIMKFKSLDDVIKRANNTFYGLSAGVFTKDIDKAITISSALQAGTVWVNCYGVVSAQCPFGGFKMSGNGRELGEYGFHEYTEVKTVTVKISQKNS"}}, "key": {"human lens ALDH1A1 [1]": {"molecular_target": "T1, human lens ALDH1A1 (Homo sapiens, UniProt P00352)", "T1 sequence (P00352 1-501)": "B1 chain", "assay_type": "biochemical"}, "human lens ALDH1A1 [2]": {"molecular_target": "T1, human lens ALDH1A1", "assay_type": "biochemical", "remark": "listed apart in the source"}, "purified protein [3]": {"substrate": "CCCCCC(O)C=CC=O", "assay": "purified protein", "details": "NAD+ probably both the substrates fit the active site well"}, "purified protein [4]": {"substrate": "CCC=O", "assay": "purified protein", "assay_type": "biochemical, Homo sapiens", "details": "NAD+"}, "purified protein [5]": {"substrate": "NC(=O)c1ccc[n+]([C@@H]2O[C@H](COP(=O)([O-])OP(=O)(O)OC[C@H]3O[C@@H](n4cnc5c(N)ncnc54)[C@H](O)[C@@H]3O)[C@@H](O)[C@H]2O)c1", "assay": "purified protein", "assay_type": "biochemical, Homo sapiens", "details": "may interfere with NO binding to catalytic site; varied: cofactor"}, "purified protein [6]": {"substrate": "O=CCC=O", "assay": "purified protein", "assay_type": "biochemical, Homo sapiens", "details": "NAD+ probably both the substrates fit the active site well"}, "purified protein [7]": {"substrate": "O=Cc1ccccc1", "assay": "purified protein", "assay_type": "biochemical, Homo sapiens", "details": "NAD+"}}, "data": [{"molecule": "CC/C(=C(/CC)c1ccc(O)cc1)c1ccc(O)cc1", "note": "[diethylstilbestrol]", "values": [{"measurement": "EC50", "setting": "human lens ALDH1A1 [1]", "result": 11.3, "unit": "µM"}]}, {"molecule": "CC(C)=CCCC(C)=CC=O", "note": "[citral, 3,7-dimethyl-2,6-octadienal]", "values": [{"measurement": "IC50", "setting": "human lens ALDH1A1 [2]", "result": 55, "unit": "µM"}]}, {"molecule": "B1", "values": [{"measurement": "Km", "setting": "purified protein [3]", "result": "4.8 ± 0.12", "unit": "µM"}, {"measurement": "Vmax", "setting": "purified protein [3]", "result": "0.135 ± 0.0152", "unit": "µmol/min/mg"}, {"measurement": "Km", "setting": "purified protein [4]", "result": "121.4 ± 6.7", "unit": "µM"}, {"measurement": "Vmax", "setting": "purified protein [4]", "result": 0.445, "unit": "µmol/min/mg"}, {"measurement": "Km", "setting": "purified protein [5]", "result": "59.4 ± 2.4", "unit": "µM"}, {"measurement": "Vmax", "setting": "purified protein [5]", "result": 0.15, "unit": "µmol/min/mg"}, {"measurement": "Km", "setting": "purified protein [6]", "result": "3.5 ± 0.6", "unit": "µM"}, {"measurement": "Vmax", "setting": "purified protein [6]", "result": 0.382, "unit": "µmol/min/mg"}, {"measurement": "Km", "setting": "purified protein [7]", "result": "143.2 ± 6.4", "unit": "µM"}, {"measurement": "Vmax", "setting": "purified protein [7]", "result": 0.75, "unit": "µmol/min/mg"}]}]}
